Data taken from US20210246218A1 (LYVGEN BIOPHARMA SUZHOU, published 2021).
Where “and” joins values, the source holds several entries; their conditions need not be identical. Equal values may be shown once.

Legend:
[1] = target: T1, recombinant cynomolgus monkey CD137 receptor protein (cynomolgus monkey, UniProt A9YYE7 24-186); test: ELISA, cynomolgus CD137 protein coated; average, n=6
T1 construct: Coated on ELISA plates; also called Cyno CD137
Experimental: (§1) The human or cynomolgus monkey CD137 receptor protein was diluted in DPBS to 1 μg/mL, and then coated onto an ELISA plate (Corning, Catalog number: 9018, high binding) with a volume of 100 μL (0.1 μg) or 50 μL (0.05 μg) per well, and incubated at 4° C. overnight. The plate was decanted and washed once; assay diluent was added 200 μL/well. After a one-hour incubation at room temperature, the plate was washed with PBST one time. […] The plate was incubated one hour at room temperature and then washed three times with PBST. Goat anti-human IgG-H+L HRP conjugated at 1:100,000 dilution was added to the plate at 100 μL/well. The plate was then incubated one hour at room temperature followed by washing with PBST four times. The TMB substrate solution was added at 100 μL/well. The color was allowed to develop for 15 minutes, and was stopped with 100 μL/well 2N H₂SO₄. Absorbance at 450 nm and 620 nm was determined by a Tecan F200 Pro reader.
(§2) Graphpad 7.0, “[Agonist] vs. response—Variable slope (four parameters)” was used to plot the binding data and calculate binding EC₅₀ values.

[2] = target: T2, human FcγRI on CHO-K1 cells (human, UniProt P12314 16-374); test: flow cytometry on CHO-huFcγRIA cells, PE anti-human Fc F(ab')2
T2 construct: whole, on cells; also called CHO-K1-huFcγRI; CHO-huFcγRIA
T2 sequence (P12314 16-374): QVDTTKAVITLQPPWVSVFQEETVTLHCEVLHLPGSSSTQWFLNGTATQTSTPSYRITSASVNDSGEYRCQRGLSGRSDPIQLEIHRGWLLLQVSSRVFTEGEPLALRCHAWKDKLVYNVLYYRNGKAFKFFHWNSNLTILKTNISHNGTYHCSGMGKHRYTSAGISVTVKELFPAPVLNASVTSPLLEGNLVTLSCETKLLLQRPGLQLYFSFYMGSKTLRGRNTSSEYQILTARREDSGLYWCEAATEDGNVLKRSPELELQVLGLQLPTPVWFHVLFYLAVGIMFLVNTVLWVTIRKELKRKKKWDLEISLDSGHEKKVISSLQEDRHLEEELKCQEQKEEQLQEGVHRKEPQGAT
Experimental: The plate was mixed and incubated in the dark for 2 hours at 4° C. […] The plate was incubated in the dark for another 1 hour at 4° C. The cells were washed 2 times by centrifugation at 1000 g for 3 min and resuspended in ice cold assay buffer containing 2% PFA.

[3] = target: T3, cynomolgus monkey CD137 on cells (cynomolgus monkey, UniProt A9YYE7 24-254); test: flow cytometry on CHO-cynomolgus monkey CD137 cells, PE anti-human IgG-Fc
T3 construct: whole, on cells; also called CHO-cynomolgus monkey CD137
T3 sequence (A9YYE7 entry or part of it): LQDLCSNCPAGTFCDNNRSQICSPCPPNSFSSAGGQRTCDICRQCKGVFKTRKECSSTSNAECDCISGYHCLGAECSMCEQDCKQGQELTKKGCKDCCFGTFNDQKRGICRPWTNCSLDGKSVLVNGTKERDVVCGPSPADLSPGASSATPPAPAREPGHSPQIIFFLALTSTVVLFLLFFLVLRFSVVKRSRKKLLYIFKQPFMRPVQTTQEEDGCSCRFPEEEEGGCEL
Experimental: (§3) CHO cells over-expressing human or cynomolgus monkey CD137 and CHO parental cells were harvested by centrifugation at 1000 g for 3 minutes. The cells were resuspended in ice cold assay buffer at 2*10\hat{ }6/mL and transferred to 96-well V-bottom plate with 100 μL/well. […] The plate was mixed and incubated in the dark for 2 hours at 4° C. The cells were washed 3 times by centrifugation at 1000 g for 3 min and resuspended in ice cold assay buffer containing goat F(ab′)₂ anti-human IgG-Fc (PE), 100 μL/well. The plate was incubated in the dark for another 1 hour at 4° C. The cells were washed 2 times by centrifugation at 1000 g for 3 min and resuspended in ice cold assay buffer containing 2% PFA. The cells were then subjected to the flow cytometer immediately.
(§4) Mean fluorescence intensity (MFI) was calculated from the total cell population in the FCM experiments. Graphpad 7.0, “[Agonist] vs. response—Variable slope (four parameters)” was used to plot the binding MFI in dose response and to calculate FCM binding EC₅₀ values.

[4] = target: T4, recombinant human CD137 receptor protein (human, UniProt Q07011 24-186); test: ELISA, recombinant human CD137 protein coated, antibody titrated
T4 construct: Coated on ELISA plates; also called recombinant human CD137 protein
Experimental: as §1, §2

[5] = target: T3, cynomolgus monkey CD137 on cells; test: flow cytometry, cellular CD137; cynomolgus monkey CD137
Experimental: as §3, §4

[6] = target: T1, recombinant cynomolgus monkey CD137 …; test: ELISA, recombinant cynomolgus CD137 protein coated, antibody titrated
Experimental: as §1, §2

T1 sequence (A9YYE7 entry or part of it): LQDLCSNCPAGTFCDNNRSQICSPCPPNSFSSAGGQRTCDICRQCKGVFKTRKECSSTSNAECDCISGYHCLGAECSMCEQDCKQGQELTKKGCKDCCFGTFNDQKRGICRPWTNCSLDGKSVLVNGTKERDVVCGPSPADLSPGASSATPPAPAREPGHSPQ

- EC50 [1]: 0.33 nM and 0.0474 µg/mL
- binding result [2]: no binding (tested: 10 µg/mL)
- EC50 (read off the curve) [3]: ~0.03 µg/mL
- EC50 (read off the curve) [4]: ~0.05 µg/mL
- EC50 [5]: ~0.3 nM
- EC50 (read off the curve) [6]: ~0.05 µg/mL
B1: Clone 3712-IgG1v (IgG1v/kappa) (antibody)
heavy: QVQLVQSGAEVKKPGASVKVSCKASGYTFAGFEMHWVRQAPGQGLEWMGAIDPKTGGTDYNQKFKDRVTMTRDTSISTAYMELSRLRSDDTAVYYCARDLGYFDVWGQGTLVTVSSASTKGPSVFPLAPSSKSTSGGTAALGCLVKDYFPEPVTVSWNSGALTSGVHTFPAVLQSSGLYSLSSVVTVPSSSLGTQTYICNVNHKPSNTKVDKKVEPKSCDKTHTCPPCPAPELLGPSVFLFPPKPKDTLMISRTPEVTCVVVDVEHEDPEVKFNWYVDGVEVHNAKTKPREEQYNSTYRVVSVLTVLHQDWLNGKEYKCKVSNKALPAPIEKTISKAKGQPREPQVYTLPPSREEMTKNQVSLTCLVKGFYPSDIAVEWESNGQPENNYKTTPPVLDSDGSFFLYSKLTVDKSRWQQGNVFSCSVMHEALHNHYTQKSLSLSPGK
light: DIQMTQSPSSLSASVGDRVTITCRASQDIRSNLNWYQQKPGGAVKLLIYYTSRLHSGVPSRFSGSGSGTDYTLTISSLQPEDFATYFCQQSEKLPRTFGGGTKVEIRRTVAAPSVFIFPPSDEQLKSGTASVVCLLNNFYPREAKVQWKVDNALQSGNSQESVTEQDSKDSTYSLSSTLTLSKADYEKHKVYACEVTHQGLSSPVTKSFNRGEC
notes: copies: 2 + 2
